T1: rROBO4−ECD (ヒトROBO4細胞外領域ポリペプチド) (human, UniProt Q8WZ75 28-461)
T1 construct: It was cloned in pEF6/V5-His-TOPO; also called ヒトROBO4−ECD; rROBO4-ECD
T1 sequence: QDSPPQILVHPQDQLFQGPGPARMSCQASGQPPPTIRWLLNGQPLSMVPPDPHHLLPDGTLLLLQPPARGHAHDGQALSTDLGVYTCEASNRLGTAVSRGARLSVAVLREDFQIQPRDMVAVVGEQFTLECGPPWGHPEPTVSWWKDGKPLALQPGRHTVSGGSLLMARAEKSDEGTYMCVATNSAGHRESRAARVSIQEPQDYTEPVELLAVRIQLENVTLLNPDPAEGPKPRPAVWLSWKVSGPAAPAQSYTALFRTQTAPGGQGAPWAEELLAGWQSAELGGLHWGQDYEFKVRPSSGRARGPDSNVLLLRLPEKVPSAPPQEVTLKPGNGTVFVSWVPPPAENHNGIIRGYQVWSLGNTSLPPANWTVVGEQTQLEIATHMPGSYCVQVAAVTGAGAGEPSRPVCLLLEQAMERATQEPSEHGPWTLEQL


target: T1, rROBO4−ECD (ヒトROBO4細胞外領域ポリペプチド); experiment: SPR, Biacore 3000; antibody captured by anti-human IgG on CM5 chip, rROBO4-ECD (0.1-200 nM) as analyte, 1:1 model

Kd [nM] | Binder
3.9 | ヒト化MAb1抗体 H−1140 (antibody, human IgG2, kappa, V domains shown, Humanised IgG2 / kappa; also called H-1140; hMAb1-H2 / hMAb1-L1) VH: EVQLVESGGGLVQPGGSLRLSCAASGFTFSTYAMSWVRQAPGKGLEWVATISQGGTYTYYPDSVKGRFTISRDNAKNTLYLQMNSLRAEDTAVYYCARLIYYDYLDYWGQGTLVTVSS VL: DIVMTQSPLSLPVTLGEPASISCRSSQSLENSNGNTYLNWYLQKPGQSPQLLIYRVSNRFSGVPDRFSGSGSGTDFTLKISRVEAEDVGVYYCLQVTHVPWTFGPGTKVDIKR
0.4 | ヒト化MAb1抗体 H−2040 (antibody, human IgG2, kappa, V domains shown, Humanised IgG2 / kappa; also called H-2040; hMAb1-H3 / hMAb1-L1) VH: EVQLVESGGGLVQPGGSLRLSCAASGFTFSTYAMSWVRQAPGKRLEWVATISNGGTYTYYPDSVKGRFTISRDNAKNTLYLQMNSLRAEDTAVYYCARLIYYDYLDYWGQGTLVTVSS VL: DIVMTQSPLSLPVTLGEPASISCRSSQSLENSNGNTYLNWYLQKPGQSPQLLIYRVSNRFSGVPDRFSGSGSGTDFTLKISRVEAEDVGVYYCLQVTHVPWTFGPGTKVDIKR
0.41 | ヒト化MAb1抗体 H−1040 (antibody, human IgG2, kappa, V domains shown, Humanised IgG2 / kappa; also called H-1040; hMAb1-H1 / hMAb1-L1) VH: EVQLVESGGGLVQPGGSLRLSCAASGFTFSTYAMSWVRQAPGKGLEWVATISNGGTYTYYPDSVKGRFTISRDNAKNTLYLQMNSLRAEDTAVYYCARLIYYDYLDYWGQGTLVTVSS VL: DIVMTQSPLSLPVTLGEPASISCRSSQSLENSNGNTYLNWYLQKPGQSPQLLIYRVSNRFSGVPDRFSGSGSGTDFTLKISRVEAEDVGVYYCLQVTHVPWTFGPGTKVDIKR

Source: patent JP2014141434A (dated 2014)
